US20220363754A1 (SHANGHAI JUNSHI BIOSCIENCES, published 2022)
Residue numbers refer to the chain shown, from its start.

Legend:
[1] = molecular target: T1, recombinant protein hTIGIT-ECD-mFC (human; mouse, UniProt Q495A1 24-155); assay: ELISA, human TIGIT-ECD-mFc coated at 1 ug/mL, anti-IgG4-HRP
T1 construct: range 24-155; Expressed in 293E cells; also called human TIGIT-ECD-mFc; not shown: murine IgG2a Fc domain of the vector MX2-mFc
T1 sequence (looked up): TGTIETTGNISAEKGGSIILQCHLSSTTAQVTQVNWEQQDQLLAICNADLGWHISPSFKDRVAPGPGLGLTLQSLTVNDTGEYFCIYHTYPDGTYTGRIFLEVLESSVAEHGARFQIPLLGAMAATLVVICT
Procedure: (§1) The solution in wells was then discarded, and the wells were washed 3 times with a washing buffer and blocked for 60 minutes with PBS containing 2% BSA. After the plate was washed 3 times with the washing buffer, chimeric antibody dilutions at different concentrations were added. The antibodies were incubated at 37° C. for 60 minutes, and then the plate was washed 3 times with the washing buffer and added with 5000-fold diluted anti-IgG4-HRP. The system was incubated at 37° C. for 30 minutes, and then washed three times with the washing buffer and added with 100 μL of TMB substrate for color development. The system was incubated at room temperature for 30 minutes, and the reaction was then terminated with 100 μL of 2 M hydrochloric acid solution. The absorbance at 450 nm was measured by a plate reader.

[2] = molecular target: T2, human TIGIT on Jurkat reporter cells (Jurkat/NFAT-Luc/hPD-1-hTIGIT) (human, UniProt Q495A1 22-244); assay: cell-based or functional assay
T2 sequence (looked up): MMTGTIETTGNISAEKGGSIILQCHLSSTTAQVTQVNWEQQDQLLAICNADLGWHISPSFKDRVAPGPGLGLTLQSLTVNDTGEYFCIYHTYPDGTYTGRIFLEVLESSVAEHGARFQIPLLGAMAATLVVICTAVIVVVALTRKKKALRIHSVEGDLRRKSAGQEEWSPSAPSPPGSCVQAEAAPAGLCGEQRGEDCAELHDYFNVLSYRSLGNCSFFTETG

[3] = molecular target: T2, human TIGIT on Jurkat reporter cells …; assay: cell-based or functional assay; remark: listed apart in the source
[4] = molecular target: T3, hTIGIT (FACS blocking assay of Example 10) (human, UniProt Q495A1 22-141, limits assumed); assay: competitive FACS, antibody titrated from 30 ug/mL in 3-fold steps, blocking of the binding of hTIGIT to its ligand hPVR on the cell surface, MFI; unit taken from the axis Log[concentration] ng/mL
T3 construct: The protocol names only PVR-mFC and 293F-hPVR cells; which of them should be TIGIT cannot be told
T3 sequence (looked up): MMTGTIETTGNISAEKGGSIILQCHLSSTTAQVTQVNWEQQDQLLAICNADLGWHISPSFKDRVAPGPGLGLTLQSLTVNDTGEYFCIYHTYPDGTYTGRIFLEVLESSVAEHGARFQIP
Procedure: Briefly, antibody dilutions at different concentrations (an initial concentration of 30 μg/mL, 3-fold titration) were each mixed with PVR-mFC (1 ug/mL, 50 μL) and incubated for 30 minutes at room temperature. The mixture was then incubated with cell suspension (stable 293F-hPVR cell line, 2.5×10⁴ cells/well) for 15 minutes at 37° C. After 3 times of elution with PBS, 100 μL of goat anti-human IgG-PE antibody was added, and the system was incubated for 30 minutes in the dark. After 3 times of elution with PBS, detection was performed by FACS. Viable cells were gated on the basis of FSC/SSC, and their geometric mean fluorescence intensity was measured.

hTIGIT-Fc = molecular target: T4, hTIGIT-Fc (human, UniProt Q495A1 24-155); assay: SPR (Biacore T200), antibody captured by anti-human Fc, antigen in solution, 1:1 model
T4 construct: range 24-155; also called human TIGIT; not shown: Fc part of the Biacore antigen is not described (possibly the murine IgG2a Fc of hTIGIT-ECD-mFC)
T4 sequence (looked up): T1 sequence (looked up)
Procedure: (§2) An S series CM5 chip (GE) was first loaded onto the instrument, and 40 μg/mL of goat anti-human Fc fragment antibody (Jackson ImmuneResearch) dissolved in sodium acetate-acetic acid buffer (pH 5.0) was ready to be coupled to the chip surface. The buffer used for the detection of antibody-antigen binding was HBS-EP+ from GE Healthcare. The antibodies hu3 and hu20 were each diluted to 8 μg/mL and captured on the chip surface. […] The resulting data were analyzed with a 1:1 binding model by using Biacore T200 Evaluation Software 3.0.

Cyno TIGIT-Fc = molecular target: T5, Cyno TIGIT-Fc (cynomolgus monkey, UniProt A0A7N9I9V4 89-209); assay: as above
T5 construct: extracellular domain; the whole named entry is XP 015300912.1; also called cynomolgus monkey TIGIT; cynoTIGIT-ECD; not shown: Fc part is not described
Procedure: as §2

[5] = molecular target: T1, recombinant protein hTIGIT-ECD-mFC; assay: ELISA, human TIGIT-ECD-mFc coated at 0.5 ug/mL, anti-IgG4-HRP
Procedure: as §1, with “humanized” for “chimeric”

[6] = molecular target: T1, recombinant protein hTIGIT-ECD-mFC; assay: ELISA, 0.5 ug/mL human TIGIT-ECD-mFc coated on the plate, detection with anti-IgG4-HRP, OD 450 nm; unit taken from the axis Log:ng/mL
[7] = molecular target: T1, recombinant protein hTIGIT-ECD-mFC; assay: as above; remark: listed apart in the source
[8] = molecular target: T1, recombinant protein hTIGIT-ECD-mFC; assay: as above; remark: listed apart in the source
[9] = molecular target: T1, recombinant protein hTIGIT-ECD-mFC; assay: as above; remark: listed apart in the source

T5 sequence (A0A7N9I9V4 entry or part of it): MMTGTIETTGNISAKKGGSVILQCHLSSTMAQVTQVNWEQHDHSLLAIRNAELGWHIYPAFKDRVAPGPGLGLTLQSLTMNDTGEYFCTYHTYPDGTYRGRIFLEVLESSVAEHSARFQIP

B1: chimeric antibody ch4 (antibody, human IgG4, V domains shown)
VH: QVQLQQSGDELVRPGTSVKVSCQAAGYTFTNYWILWIKQRPRHGLEWIGDIYPGGHYTNYNEKFKGKATLTADTSSSTAYMQLNSLTSEDSAIYYCTRYYGPYAMDYWGQGTSVTVSS
VL: DIVMSQSPSSLPVSVGEKVTMSCKSSQSLLYNSNQKNYLAWYQQIPGQSPKLLIYWASTGESGVPDRFTGSGSGTDFTLTISSVKAEDLAVYYCQQYYSYPFTFGSGTKLEIK
notes: IgG4 chimeric antibody; also called 23O20-ch-HC / 23O20-ch-LC
B1 was tested, and the EC50 [1] was 0.00893 µg/mL and the “EC50, luciferase reporter gene experiment (T cell activation)” value (“EC50 … (T cell activation)” below) [2] was 104 ng/mL.

B2: hybridoma antibody 23O20 (antibody, V domains shown)
VH: B1 VH
VL: B1 VL
In the case of B2, the “RLU fold change, NFAT-luciferase reporter, antibody alone” value [3] is reported as 2.3 fold and the “RLU fold change, NFAT-luciferase reporter, with JS001” value [3] is reported as 2.3 fold.

B3: humanized antibody hu3 (antibody, human IgG4 S228P, kappa, V domains shown)
VH: QVQLVQSGAEVKKPGASVKVSCKTSGYAFTEYTMHWVRQAPGQGLEWMGGINPNTGGTTYNQKFQGRVTLTVDKSSSTAYMELSRLRSDDTVVYYCAKLLRLMYYFDYWGQGTLVTVSS
VL: DIVMTQSPDSLAVSLGERATINCKASQDVRTAVAWYQQKPGQPPKLLIYSASYRYTGVPDRFSGSGSGTDFTLTISSLQAEDVAVYYCHQHYITPWTFGGGTKVEIKR
notes: Humanized from 2O18
Work on B3 yielded an IC50 [4] of 0.0693 µg/mL, a Kd (hTIGIT-Fc) of 0.13 nM and a koff (hTIGIT-Fc) of 0.000121 s⁻¹. The kon (hTIGIT-Fc) was 935000 M⁻¹ s⁻¹, the Kd (Cyno TIGIT-Fc) was 1.42 nM and the koff (Cyno TIGIT-Fc) was 0.0003 s⁻¹. The kon (Cyno TIGIT-Fc) was 211000 M⁻¹ s⁻¹, the EC50 [5] was 0.0232 µg/mL and the “EC50 … (T cell activation)” value [2] was 140 ng/mL.

B4: humanized antibody hu20 (antibody, human IgG4 S228P, kappa, V domains shown)
VH: B3 VH with Q43K, R85S, D89E
VL: DIQMTQSPSSLSASVGDRVTITCQASQDVRTAVAWYQQKPGKAPKLLIYSASYRYTGVPSRFSGSGSGTDFTFTISSLQPEDIATYYCHQHYITPWTFGGGTKVEIKR
notes: Humanized from 2O18
With B4 the IC50 [4] was 0.0587 µg/mL, the Kd (hTIGIT-Fc) was 0.209 nM and the koff (hTIGIT-Fc) was 0.000163 s⁻¹. The kon (hTIGIT-Fc) was 777000 M⁻¹ s⁻¹, the Kd (Cyno TIGIT-Fc) was 1.45 nM and the koff (Cyno TIGIT-Fc) was 0.000329 s⁻¹. For the same binder, the kon (Cyno TIGIT-Fc) was 226000 M⁻¹ s⁻¹, the EC50 [5] was 0.0378 µg/mL and the “EC50 … (T cell activation)” value [2] was 42.4 ng/mL.

B5: humanized antibody hu62 (antibody, V domains shown)
VH: QVQLVQSGAEVKKPGASVKVSCKASGYTFTNYWILWIRQAPGQGLEWMGDIYPGGHYTNYNEKFQGRVTLTADTSSSTAYMELSSLRSEDTAVYYCTRYYGPYAMDYWGQGTLVTVSS
VL: DIQMTQSPSSLSASVGDRVTITCRSSQSLLYNSNQKNYLAWYQQKPGKAPKLLIYWASTGESGVPSRFSGSGSGTDFTLTISSLQPEDFATYYCQQYYSYPFTFGQGTKVEIK
notes: Humanized from 23O20; detected with anti-IgG4-HRP in the ELISA, constant regions not otherwise stated
B5 was tested, and the EC50 [5] was 0.0086 µg/mL and the “EC50 … (T cell activation)” value [2] was 109 ng/mL.

B6: humanized antibody hu69 (antibody, V domains shown)
VH: B5 VH with S85R, E89D
VL: DIVMTQSPLSLPVTPGEPASISCRSSQSLLYNSNQKNYLAWYLQKPGQSPQLLIYWASTGESGVPDRFSGSGSGTDFTLKISRVEAEDVGVYYCQQYYSYPFTFGQGTKLEIK
notes: as for B5
B6 was tested, and the EC50 [5] was 0.0107 µg/mL and the “EC50 … (T cell activation)” value [2] was 103 ng/mL.

B7: humanized antibody hu81 (antibody, V domains shown)
VH: B5 VH with F64L, S84R, E89D
VL: B6 VL with L110V
notes: as for B5
B7 was tested, and the EC50 [5] was 0.00983 µg/mL and the “EC50 … (T cell activation)” value [2] was 88.4 ng/mL.

B8: etigilimab (antibody, V domains shown)
VH: QVQLQESGPGLVKPSETLSLTCAVSGYSITSDYAWNWIRQPPGKGLEWIGYISYSGSTSYNPSLRSRVTISRDTSKNQFFLKLSSVTAADTAVYYCARRQVGLGFAYWGQGTLVTVSS
VL: DIQMTQSPSSLSASVGDRVTITCKASQDVSTAVAWYQQKPGKAPKLLIYSASYRYTGVPSRFSGSGSGTDFTFTISSLQPEDIATYYCQQHYSTPWTFGQGTKVEIK
B8 was tested, and the EC50 [6] was 0.0194 µg/mL, the EC50 [7] was 0.0275 µg/mL and the EC50 [8] was 0.0262 µg/mL. The EC50 [9] was 0.0362 µg/mL.

B9: hybridoma antibody 2O18 (antibody, V domains shown)
VH: EVQLQQSGPELVKPGASVKISCKTSGYAFTEYTMHWVKQSHGKSLEWIGGINPNTGGTTYNQKFKGKATLTVDKSSSTAYMEFRSLTSEDSAVYYCAKLLRLMYYFDYWGQGTTLTVSS
VL: DIVMTQSHKFMSTSVGDRVSITCKASQDVRTAVAWYQQKPGQSPKLLIYSASYRYTGVPDRFTGSGSGTDFTFTISSVQAEDLALYYCHQHYITPWTFGGGTKLEIK
For B9, the “RLU fold change, NFAT-luciferase reporter (Jurkat hPD-1/hTIGIT + CHO hPD-L1/hPVRL2), with JS001” value [3] was 3.3 fold and the “RLU fold change, NFAT-luciferase reporter, antibody alone” value [3] was 6.3 fold.

B10: chimeric antibody ch1 (antibody, human IgG4, V domains shown)
VH: B9 VH
VL: B9 VL
notes: IgG4 chimeric antibody; also called 2O18-ch-HC / 2O18-ch-LC
For B10, the EC50 [1] was 0.0325 µg/mL and the “EC50 … (T cell activation)” value [2] was 76.6 ng/mL.
